Values of other authors, collected in PMC7101603.

Target: Activin-A mature (Homo sapiens) (UniProt P08476)

## Activin βA pro-peptide pro-peptide (from UniProt P08476)
  Kd: 100 nM
